Measurements as given in PMC10397247.
Values belong to the binder of their own block, whether it stands above or below them.

Tests used:
Assay in all cases: two-hybrid library CCmax;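 also: natural log of median RNA to DNA barcode read ratio; higher means stronger binding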
4H2774-AA = target: T1, 4H2774-AA
T1 chain: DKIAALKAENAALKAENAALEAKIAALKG

4H2903-AA = target: T2, 4H2903-AA; conditions: mean of both orientations
T2 chain: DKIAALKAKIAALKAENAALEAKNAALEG

4H2931-AA = target: T3, 4H2931-AA; conditions: mean of both orientations
T3 chain: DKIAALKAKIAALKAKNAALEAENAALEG

4H2947-AA = target: T4, 4H2947-AA; conditions: mean of both orientations
T4 chain: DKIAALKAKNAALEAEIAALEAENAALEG

4H2961-AA = target: T5, 4H2961-AA; conditions: mean of both orientations
T5 chain: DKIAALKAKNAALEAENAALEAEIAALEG

4H3001-AA = target: T6, 4H3001-AA; conditions: mean of both orientations
T6 chain: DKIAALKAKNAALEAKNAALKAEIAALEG

4H3015-AA = target: T7, 4H3015-AA; conditions: mean of both orientations
T7 chain: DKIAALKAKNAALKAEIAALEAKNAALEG

4H3049-AA = target: T8, 4H3049-AA; conditions: mean of both orientations
T8 chain: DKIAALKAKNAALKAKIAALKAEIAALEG

4H3073-AA = target: T9, 4H3073-AA; conditions: mean of both orientations
T9 chain: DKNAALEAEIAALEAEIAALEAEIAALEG

4H3094-AA = target: T10, 4H3094-AA; conditions: mean of both orientations
T10 chain: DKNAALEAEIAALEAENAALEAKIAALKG

4H3129-AA = target: T11, 4H3129-AA; conditions: mean of both orientations
T11 chain: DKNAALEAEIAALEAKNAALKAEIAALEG

4H324-AA = target: T12, 4H324-AA; conditions: mean of both orientations
T12 chain: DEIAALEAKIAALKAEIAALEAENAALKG

4H3340-AA = target: T13, 4H3340-AA; conditions: mean of both orientations
T13 chain: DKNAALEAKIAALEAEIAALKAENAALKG

4H3381-AA = target: T14, 4H3381-AA; conditions: mean of both orientations
T14 chain: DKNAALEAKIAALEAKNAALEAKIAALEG

4H341-AA = target: T15, 4H341-AA; conditions: mean of both orientations
T15 chain: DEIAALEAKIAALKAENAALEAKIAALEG

4H3414-AA = target: T16, 4H3414-AA; conditions: mean of both orientations
T16 chain: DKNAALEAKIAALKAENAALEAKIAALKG

4H3438-AA = target: T17, 4H3438-AA; conditions: mean of both orientations
T17 chain: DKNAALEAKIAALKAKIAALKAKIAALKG

4H3449-AA = target: T18, 4H3449-AA; conditions: mean of both orientations
T18 chain: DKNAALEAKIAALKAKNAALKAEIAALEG

4H347-AA = target: T19, 4H347-AA; conditions: mean of both orientations
T19 chain: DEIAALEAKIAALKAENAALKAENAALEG

4H3493-AA = target: T20, 4H3493-AA; conditions: mean of both orientations
T20 chain: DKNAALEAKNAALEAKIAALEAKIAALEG

4H3595-AA = target: T21, 4H3595-AA; conditions: mean of both orientations
T21 chain: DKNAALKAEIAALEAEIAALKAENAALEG

4H3619-AA = target: T22, 4H3619-AA; conditions: mean of both orientations
T22 chain: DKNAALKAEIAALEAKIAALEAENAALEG

4H3629-AA = target: T23, 4H3629-AA; conditions: mean of both orientations
T23 chain: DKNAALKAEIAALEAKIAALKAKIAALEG

4H376-AA = target: T24, 4H376-AA; conditions: mean of both orientations
T24 chain: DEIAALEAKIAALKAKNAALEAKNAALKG

4H3777-AA = target: T25, 4H3777-AA; conditions: mean of both orientations
T25 chain: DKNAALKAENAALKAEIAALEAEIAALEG

4H3782-AA = target: T26, 4H3782-AA; conditions: mean of both orientations
T26 chain: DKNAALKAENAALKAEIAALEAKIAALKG

4H380-AA = target: T27, 4H380-AA; conditions: mean of both orientations
T27 chain: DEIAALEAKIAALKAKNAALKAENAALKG

4H3915-AA = target: T28, 4H3915-AA; conditions: mean of both orientations
T28 chain: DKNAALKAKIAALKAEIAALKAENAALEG

4H3939-AA = target: T29, 4H3939-AA; conditions: mean of both orientations
T29 chain: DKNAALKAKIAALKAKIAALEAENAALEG

4H3969-AA = target: T30, 4H3969-AA; conditions: mean of both orientations
T30 chain: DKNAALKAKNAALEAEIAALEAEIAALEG

4H3974-AA = target: T31, 4H3974-AA; conditions: mean of both orientations
T31 chain: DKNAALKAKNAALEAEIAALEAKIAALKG

4H406-AA = target: T32, 4H406-AA; conditions: mean of both orientations
T32 chain: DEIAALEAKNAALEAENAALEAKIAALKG

4H432-AA = target: T33, 4H432-AA; conditions: mean of both orientations
T33 chain: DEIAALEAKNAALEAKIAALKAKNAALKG

4H446-AA = target: T34, 4H446-AA; conditions: mean of both orientations
T34 chain: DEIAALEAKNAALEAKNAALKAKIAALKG

4H452-AA = target: T35, 4H452-AA; conditions: mean of both orientations
T35 chain: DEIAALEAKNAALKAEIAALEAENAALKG

4H464-AA = target: T36, 4H464-AA; conditions: mean of both orientations
T36 chain: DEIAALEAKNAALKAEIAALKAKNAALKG

4H483-AA = target: T37, 4H483-AA; conditions: mean of both orientations
T37 chain: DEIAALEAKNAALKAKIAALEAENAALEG

4H56-AA = target: T38, 4H56-AA; conditions: mean of both orientations
T38 chain: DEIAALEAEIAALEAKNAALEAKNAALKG

4H63-AA = target: T39, 4H63-AA; conditions: mean of both orientations
T39 chain: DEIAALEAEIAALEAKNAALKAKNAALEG

4H688-AA = target: T40, 4H688-AA; conditions: mean of both orientations
T40 chain: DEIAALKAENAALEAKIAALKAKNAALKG

4H963-AA = target: T41, 4H963-AA; conditions: mean of both orientations
T41 chain: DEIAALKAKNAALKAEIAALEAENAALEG

4H_APH = target: T42, 4H_APH; conditions: mean of both orientations
T42 chain: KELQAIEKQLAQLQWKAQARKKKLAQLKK

4H_BCR = target: T43, 4H_BCR; conditions: mean of both orientations
T43 chain: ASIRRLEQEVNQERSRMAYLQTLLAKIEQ

4H_GCN4 = target: 4H_GCN4
4H_GCN4, sequence (chain, as listed by the source): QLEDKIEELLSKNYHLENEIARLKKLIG

GCN2_T = target: GCN2_T
APC1015-AA = target: T44, APC1015-AA; conditions: mean of both orientations
T44 chain: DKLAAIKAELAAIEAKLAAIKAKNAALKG

APC1434-AA = target: T45, APC1434-AA; conditions: mean of both orientations
T45 chain: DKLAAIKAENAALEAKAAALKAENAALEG

APC2237-AA = target: T46, APC2237-AA; conditions: mean of both orientations
T46 chain: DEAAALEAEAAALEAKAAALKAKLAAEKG

APC232-AA = target: T47, APC232-AA; conditions: mean of both orientations
T47 chain: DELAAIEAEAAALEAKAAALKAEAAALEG

APC2405-AA = target: T48, APC2405-AA; conditions: mean of both orientations
T48 chain: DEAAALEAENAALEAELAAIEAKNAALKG

APC3645-AA = target: T49, APC3645-AA; conditions: mean of both orientations
T49 chain: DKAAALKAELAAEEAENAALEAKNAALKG

APC4011-AA = target: T50, APC4011-AA; conditions: mean of both orientations
T50 chain: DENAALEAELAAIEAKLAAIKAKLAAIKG

APC4264-AA = target: T51, APC4264-AA
T51 chain: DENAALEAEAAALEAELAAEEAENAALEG

APC4436-AA = target: T52, APC4436-AA; conditions: mean of both orientations
T52 chain: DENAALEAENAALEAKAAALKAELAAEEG

APC5383-AA = target: T53, APC5383-AA; conditions: mean of both orientations
T53 chain: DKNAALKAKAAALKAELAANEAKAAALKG

APC6108-AA = target: T54, APC6108-AA; conditions: mean of both orientations
T54 chain: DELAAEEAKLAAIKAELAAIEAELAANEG

APC7099-AA = target: T55, APC7099-AA; conditions: mean of both orientations
T55 chain: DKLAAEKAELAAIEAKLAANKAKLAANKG

APC8191-AA = target: T56, APC8191-AA; conditions: mean of both orientations
T56 chain: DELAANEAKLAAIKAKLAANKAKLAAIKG

APC8910-AA = target: T57, APC8910-AA; conditions: mean of both orientations
T57 chain: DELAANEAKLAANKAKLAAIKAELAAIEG

APC9096-AA = target: T58, APC9096-AA; conditions: mean of both orientations
T58 chain: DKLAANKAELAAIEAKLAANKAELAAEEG

APC9319-AA = target: T59, APC9319-AA; conditions: mean of both orientations
T59 chain: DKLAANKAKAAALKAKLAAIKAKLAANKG

- interaction score (4H2774-AA): 1.65
- interaction score (4H2903-AA): -1.73
- interaction score (4H2931-AA): -1.98
- interaction score (4H2947-AA): -1.7
- interaction score (4H2961-AA): -0.737
- interaction score (4H3001-AA): 0.364
- interaction score (4H3015-AA): -1.48
- interaction score (4H3049-AA): 1.59
- interaction score (4H3073-AA): -1.43
- interaction score (4H3094-AA): -0.282
- interaction score (4H3129-AA): -0.715
- interaction score (4H324-AA): -1.75
- interaction score (4H3340-AA): -1.59
- interaction score (4H3381-AA): -1.61
- interaction score (4H341-AA): 0.103
- interaction score (4H3414-AA): -1.5
- interaction score (4H3438-AA): -1.63
- interaction score (4H3449-AA): -0.756
- interaction score (4H347-AA): -0.921
- interaction score (4H3493-AA): -1.56
- interaction score (4H3595-AA): -1.57
- interaction score (4H3619-AA): -1.75
- interaction score (4H3629-AA): -1.34
- interaction score (4H376-AA): -2.64
- interaction score (4H3777-AA): -0.668
- interaction score (4H3782-AA): -1.14
- interaction score (4H380-AA): -1.68
- interaction score (4H3915-AA): -1.36
- interaction score (4H3939-AA): -1.9
- interaction score (4H3969-AA): -1.72
- interaction score (4H3974-AA): -0.913
- interaction score (4H406-AA): -0.207
- interaction score (4H432-AA): -1.57
- interaction score (4H446-AA): 1.28
- interaction score (4H452-AA): -0.902
- interaction score (4H464-AA): -1.18
- interaction score (4H483-AA): -1.21
- interaction score (4H56-AA): -1.47
- interaction score (4H63-AA): -1.37
- interaction score (4H688-AA): -0.923
- interaction score (4H963-AA): -0.529
- interaction score (4H_APH): -1.61
- interaction score (4H_BCR): -0.289
- interaction score (4H_GCN4): -2.24
- interaction score (GCN2_T): -1.68
Binder: DKIAALKAENAALKAENAALEAKIAALKG [4H2774-AA]

- interaction score (APC1015-AA): -0.714
- interaction score (APC1434-AA): -1.82
- interaction score (APC2237-AA): -1.21
- interaction score (APC232-AA): -1.73
- interaction score (APC2405-AA): -1.49
- interaction score (APC3645-AA): -1.3
- interaction score (APC4011-AA): 1.45
- interaction score (APC4264-AA): -1.72
- interaction score (APC4436-AA): -1.65
- interaction score (APC5383-AA): -1.89
- interaction score (APC6108-AA): -1.43
- interaction score (APC7099-AA): -1.32
- interaction score (APC8191-AA): -2.1
- interaction score (APC8910-AA): -1.59
- interaction score (APC9096-AA): -1.75
- interaction score (APC9319-AA): -1.71
Binder: DEIAALKAKIAALEAKIAALEAKNAALEG [4H807-AA]
